Results taken from patent US20050164926A1 (published 2005).

Target: porcine trypsin (porcine, UniProt P00761 9-231)
Experiment: cell-based or functional assay

porcine trypsin, sequence (P00761 9-231 limits assumed): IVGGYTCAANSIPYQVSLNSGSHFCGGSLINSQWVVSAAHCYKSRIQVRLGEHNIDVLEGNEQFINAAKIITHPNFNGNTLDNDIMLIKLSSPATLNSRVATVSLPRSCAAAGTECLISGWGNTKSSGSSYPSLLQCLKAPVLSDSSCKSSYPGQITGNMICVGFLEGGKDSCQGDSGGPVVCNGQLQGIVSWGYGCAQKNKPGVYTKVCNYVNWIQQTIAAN

- apparent stoichiometry of inhibition (amidolysis of S2444, titration of trypsin activity): 1 mol inhibitor per mol enzyme
B1: ANV-KAPP (other)
chain: AQVLRGTVTDFPGFDERADAETLRKAMKGLGTDEESILTLLTSRSNAQRQEISAAFKTLFGRDLLDDLKSELTGKFEKLIVALMKPSRLYDAYELKHALKGAGTNEKVLTEIIASRTPEELRAIKQVYEEEYGSSLEDDVVGDTSGYYQRMLVVLLQANRDPDAGIDEAQVEQDAQALFQAGELKWGTDEEKFITIFGTRSVSHLRKVFDKYMTISGFQIEETIDRETSGNLEQLLLAVVKSIRSIPAYLAETLYYAMKGAGTDDHTLIRVMVSRSEIDLFNIRKEFRKNFATSLYSMIKGDTSGDYKKALLLLAGEDDEVCSEQAETGPCRAMISRWYFDVTEGKCAPFFYGGCGGNRNNFDTEEYCMAVCGSAI
